Source: the supplement of paper PMC9170038

Experiments:
MS2 coat protein [1] = test: apparent KD of MS2 coat protein, switch ON state; designed switch direction (-1 OFF switch, 1 ON switch): -1; higher = weaker reporter binding; details: FMN input: 0 or 200 uM; Eterna round: R93 (includes R88 designs)
How it was run: (§1)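 Designed RNA switches were transcribed on-chip from Illumina sequencing clusters and titrated with SNAP-549-labelled MS2 coat protein in twofold steps from 0.7 or 1.5 nM up to 3 µM. Each step lasted 0.8–1.5 h at first and 10–20 min by the end, in 100 mM Tris-HCl pH 7.5, 80 mM KCl and 4 mM MgCl2, without or with constant ligand. Apparent KD is the median, for each design, of fits to normalised cluster binding curves.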

MS2 coat protein [2] = test: apparent KD of MS2 coat protein, switch OFF state (with FMN for OFF switches, without FMN for ON switches); designed switch direction (-1 OFF switch, 1 ON switch): -1; higher = weaker reporter binding; details: FMN input: 0 or 200 uM; Eterna round: R93 (includes R88 designs)
How it was run: as §1

| Sequence | apparent KD of MS2 coat protein (MS2 coat protein [1]) | apparent KD of MS2 coat protein (MS2 coat protein [2]) |
| --- | --- | --- |
| AACAUGUUAGGAUAUAGAAGAAAAGAAAAGAAAGAAAAGAACUAGAAGGAACAUGAGGAUCACCCAUGUAAGAA [EteRNA is fun!] | 30.9 nM | 26.1 nM |
| AACAUGUUAGGAUAUCAAAGAAAAGAAAAGAAAGAAAAGAAUGAGAAGGAACAUGAGGAUCACCCAUGUAAGAA [EteRNA is fun!] | 23 nM | 22.1 nM |
| AACUAGUCAGGAUAUACGAACAUGUCAAAAAACAUGAAGGGACAUGAGGAUCACCCAUGUAGAAGGGACUAGCA [74%, Web mod - With 3 less G's] | 60.5 nM | 209 nM |
| AACUGACAUGAGGAUCACCCAUGUCAGGAUAUGACUUGAUAGAAAAAAAAAUAUCAUGUCAGAAGGGACAUGGG [Design 56 :P Sub-opt I] | 21.4 nM | 12.8 nM |
| AACUGACAUGAGGAUCACCCAUGUCAGGAUAUGAUAUGUAAAAAAAAAAAAAUACUUAUCAGAAGGGACAUGGG [Design 40: Sub-opt AB] | 15.3 nM | 15.4 nM |
| AACUGACAUGAGGAUCACCCAUGUCAGGAUAUGAUUUGACGAAAAAAAACACGUCAUAUCAGAAGGGACAUGGA [Design 85: Sub-opt X] | 23.7 nM | 39.5 nM |
| AACUGGCUAGGAUAUACGUAAUAAAAUAUCAGUGAGAUUUCACAUGAGGAUCACCCAUGUAGAAGGAGCAAAAU [Esxereorar] | 24.5 nM | 16.6 nM |
| AAGAAACAUGAGGAUCACCCAUGUCAGGAUAUGAAAAAGAAAAGAAAAGAAAGAAGAAUCAGAAGGGACAAAGG [Neferkauhor Khuwihapi] | 74.1 nM | 27.4 nM |
| AAGAAACAUGAGGAUCACCCAUGUGAGGAUAUUCAAAAGAAAAGAAAAGAAAGAAGAAGAAGAAGGCACAAAGG [Neferkamin] | 24.7 nM | 45.5 nM |
| AAGAAAGGAGGAUAUACAAGAAAGAAAGAAAAGAAAAGAAAACAUGAGGAUCACCCAUGUAGAAGGCCUUAGAA [EteRNA is fun!] | 26.9 nM | 17.8 nM |
| AAGAACCUAGGAUAUACAAAAUAAAAGAAAAGAAAGAAAGAACAUGAGGAUCACCCAUGUAGAAGGAGGAAGAA [Renseneb] | 48.3 nM | 18.5 nM |
| AAGAACUCAGGAUAUACAUGAGGAUCACCCAUGUAAAAGAAAGAAAAGGGAAAGAAAAGUAGAAGGGAGAAGAA [Neferkheperure-waenre Amenhotep IV] | 32.7 nM | 36.2 nM |
| AAGAACUGAGGAUAUACACAAGAAAAGAAAAGAAAGAAAGAACAUGAGGAUCACCCAUGUAGAAGGCGGAAGAA [Merhotepre Sobekhotep V] | 39.3 nM | 26.5 nM |
| AAGAAGAUAGGAUAUACAAAAUAAAAGAAAAGAAAGAAAGAACAUGAGGAUCACCCAUGUAGAAGGAUCAAGAA [Sehetepibre Amenemhat I] | 25 nM | 17.7 nM |
| AAGAAGCUAGGAUAUACAUGAGGAUCACCCAUGUAAAAGAAAGAGGGAAAAGAGAAAAGUAGAAGGAGCAAGAA [Cleopatra I] | 27.8 nM | 25.4 nM |
| AAGAAGUAAGGAUAUACAAGAAAGAAAGAAAAGAAAAGAAAACAUGAGGAUCACCCAUGUAGAAGGUACUAGAA [EteRNA is fun!] | 24.1 nM | 14.9 nM |
| AAGAAGUCAGGAUAUACUAAAGAAAUAAAAAGAAAGAAAGAACAUGAGGAUCACCCAUGUAGAAGGGACAAGAA [Sewadjare Mentuhotep V] | 67.4 nM | 31.7 nM |

| Sequence | apparent KD of MS2 coat protein (MS2 coat protein [1]) | apparent KD of MS2 coat protein (MS2 coat protein [2]) |
| --- | --- | --- |
| AAGAAGUCAGGAUAUGCUGCUCGUCACUUGCGUGAUGAGUAGCAGAAGGGACAUGAGGAUCACCCAUGUGGAAA [Modifying Chris (69%) Late G segment 2] | 123 nM | 246 nM |
| AAGAAGUGAGGAUAUUCGGAUAGGAAAACGAAAACCUAUCCGAAGAAGGCACAUGAGGAUCACCCAUGUAAAAA [Mat - Exaclusion 4 - Eli mod - D41] | 36.7 nM | 54.3 nM |
| AAGAAGUUAGGAUAUACAAAAUAAAAGAAAAGAAAGAAAGAACAUGAGGAUCACCCAUGUAGAAGGGACAAGAA [Nubkaure Amenemhat II] | 59.2 nM | 33.9 nM |
| AAGAAUGAAGGAUAUACAAGGAAGAAAGAAAAGAAAAGAAAACAUGAGGAUCACCCAUGUAGAAGGUCAUAGAA [EteRNA is fun!] | 22 nM | 26.3 nM |
| AAGAGUACAGGAUAUAUGUGAAAAGAGUCGAAAGACUCAAAACAUGAGGAUCACCCAUGUAGAAGGGUACUCAA [Diamond 74] | 52.5 nM | 27.3 nM |
| AAGAGUACAGGAUAUAUGUGAAAAGAGUCGAAAGACUCGGGACAUGAGGAUCACCCAUGUAGAAGGGUACUCAA [Diamond 75] | 75.7 nM | 79.7 nM |
| AAGAGUAGAGGAUAUACAUGAGGAUCACCCAUGUAAUCCAGAUAAGGAAGCAUGGCGUGUAGAAGGCUGCAUGA [MOD of Nando (MS2 Riboswitches- Exclusion 3)] | 28.2 nM | 35.2 nM |
| AAGAUGUCAGGAUAUACAUAAAUAAAAAAUUAUGUUAAAACACAUGAGGAUCACCCAUGUAGAAGGGACAACAA [AJ 6] | 36.4 nM | 20.7 nM |
| AAGCUGGUAGGAUAUACUAGGGCAACUAAUGCACCGAGAGGACAUGAGGAUCACCCAUGUAGAAGGGCCAGAAA [Mat - Exclusion 2 - JL mod - D63] | 114 nM | 82.3 nM |
| AAGGGACAUGAGGAUCACCCAUGUCAGGAUAUGAUGCGAAUAAAGAAAGAAUAAAGCAUCAGAAGGGACGCCAA [Mat - Exclusion 1 - Eli mod - D65] | 21.1 nM | 25.7 nM |
| AAGGUACGAGGAUAUACAUAGAUACAAACACAUGUGGAUGUACAUGAGGAUCACCCAUGUAGAAGGCGUAUAUA [AJ 22] | 58.6 nM | 84.7 nM |
| AAGGUACGAGGAUAUACAUAGAUACAGACACAUGUAGAUGUACAUGAGGAUCACCCAUGUAGAAGGCGUAUAUA [AJ 20] | 60.7 nM | 97.5 nM |
| AAGUAUAGAGGAUAUACAUAGAUACAGAUUCAUGUAGAACUACAUGAGGAUCACCCAUGUAGAAGGCUAUAAUA [AJ 34] | 19.4 nM | 27.9 nM |
| AAGUUGGGAGGAUAUAUAUGGACACACAUUGGUGUAGAACUACAUGAGGAUCACCCAUGUAGAAGGCCCAAAUA [AJ 57] | 20.3 nM | 33.1 nM |
| AAUAACAGAGGAUAUACAAAAAUAAAAGGAAACAAAAGAAAACAUGAGGAUCACCCAUGUAGAAGGCUGAAUAA [Tetraloop BlockHead] | 19.4 nM | 20.3 nM |
| AAUAAGUGAGGAUAUACUAAAGAAAUGAAAAGAAAUAAAGAACAUGAGGAUCACCCAUGUAGAAGGCACAAUAA [Sekheperenre] | 24.4 nM | 24.5 nM |
| AAUAAGUGAGGAUAUGGAAAUAAUAAAUAAAAUAAAAUAAACCAGAAGGCACAUGAGGAUCACCCAUGUAAAUA [JR_Exc004_Sub002] | 24.4 nM | 22 nM |
